{
  "source": "patent US9394555B2",
  "about": "“Compositions comprising a polypeptide having cellulolytic enhancing activity and a dioxy compound and uses thereof” (priority 2010, dated 2016)",
  "type_in_all_cases": "biochemical",
  "key": {"[1]": {"target": "T1, T. aurantiacus GH61A polypeptide (Thermoascus aurantiacus, UniProt G3XAP7, N13Y)", "T1 sequence (G3XAP7 whole entry N13Y)": "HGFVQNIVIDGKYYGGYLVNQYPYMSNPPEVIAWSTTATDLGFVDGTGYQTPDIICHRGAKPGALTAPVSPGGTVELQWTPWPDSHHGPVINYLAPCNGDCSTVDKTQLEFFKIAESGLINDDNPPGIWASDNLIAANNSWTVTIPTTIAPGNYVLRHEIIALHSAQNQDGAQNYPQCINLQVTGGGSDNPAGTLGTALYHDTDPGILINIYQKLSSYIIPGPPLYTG", "test": "Bacterial cellulose conversion assay (Examples 15, 16)", "settings": "A. oryzae CEL3A beta-glucosidase (50 mg protein per g cellulose) only; 72 hours, 50° C.", "procedure": "Bacterial cellulose was prepared from NATA DE COCO (Huerto International Trading, Lucena City, Philippines) by extensive rinsing of one 500 ml can of cubes with water followed by homogenation for 15 minutes in 0.25 M sodium hydroxide using a WARING BLENDER® (Waring Products, Torrington, Conn., USA). The resulting slurry was pelleted at 40,000×g in a SORVALL® RT7 centrifuge. The supernatant was discarded. The pellet was then resuspended in 0.25 M sodium hydroxide and stirred overnight at 4° C. This procedure was repeated four times. Following the first washing steps, the cellulose was washed six times under similar conditions, substituting water for 0.25 M sodium hydroxide. Following the water washing, the cellulose was again homogenized for 15 minutes in a WARING BLENDER®, and adjusted to a final volume of 250 ml.\nA 0.36% bacterial cellulose slurry was prepared as described in Example 14. This 0.36% slurry was thoroughly resuspended by shaking, and quickly transferred to a 100 ml beaker and stirred rapidly with a magnetic stirrer. Seven hundred μl aliquots of the bacterial cellulose slurry were pipetted into wells of a 2.0 ml 96-deepwell plate (Axygen, Union City, Calif.) using a 1000 μl micropipette with a wide aperture tip (end of tip cut off about 2 mm from the base). One hundred μl of 10 mM MnSO4-500 mM sodium acetate pH 5 was then added to each well. One hundred μl of either deionized water, a 1% gallic acid solution dissolved in water, or a 1% gallic acid solution containing 50 mM EDTA were added to each well. Enzyme mixtures were prepared and then added simultaneously to all wells in a volume of 100 μl, for a total of 1 ml in each reaction. […] All experiments reported were performed in triplicate.\n(§1) Primary analysis of the hydrolysis reactions was performed using an AGILENT® 1100 HPLC with CHEMSTATION® software equipped with an AMINEX™ HPX-87H column. After approximately 4 days, the deep-well plate was removed from the incubator and chilled overnight to 4° C. The plate was then mixed well by inversion and briefly centrifuged 52×g in a SORVALL® RT7 centrifuge for 10 seconds. Samples were then mixed by pipetting, and 200 μl from each well were transferred to a MULTISCREEN® HV centrifuge filter plate assembly. The centrifuge filter plate assembly was centrifuged at 2000 rpm in a SORVALL® RT7 centrifuge for 20 minutes. […] Sugars were detected using a refractive index detector with quantification by integration compared to purified sugar standards.\nAll HPLC data processing was performed using MICROSOFT EXCEL™ software. […] In this assay only glucose was measured since beta-glucosidase was at high levels in all samples but the controls. Percent conversion was determined using Equation 1. Triplicate data points were averaged and standard deviation was calculated.\nThe bacterial cellulose hydrolysis assay was performed as described in Example 15.\nData was collected and analyzed, as described in Example 15, after 72 hours of incubation at 50° C."}, "[2]": {"target": "T1, T. aurantiacus GH61A polypeptide", "test": "Phosphoric acid swollen cellulose (PASC) hydrolysis assay (Examples 18, 19)", "settings": "A. oryzae CEL3A beta-glucosidase (20 mg protein per g cellulose) only; 72 hours, 50° C.", "procedure": "A 1% phosphoric acid swollen cellulose (PASC) slurry was prepared from AVICEL® PH101 using the protocol described by Zhang et al., 2006, Biomacromolecules 7: 644-648.\nThe 1.0% PASC slurry prepared as described in Example 17 was thoroughly resuspended by shaking, and quickly transferred to a 100 ml beaker and stirred rapidly with a magnetic stirrer. Five hundred μl aliquots of the 1.0% PASC slurry were pipetted into wells of a 2.0 ml 96-deepwell plate (Axygen, Union City, Calif., USA) using a 1000 μl micropipette with a wide aperture tip (end of tip cut off about 2 mm from the base). One hundred μl of 10 mM MnSO4-500 mM sodium acetate pH 5 were then added to each well. […]\nPrimary analysis of the hydrolysis reactions was performed using an AGILENT® 1100 HPLC with CHEMSTATION® software equipped with an AMINEX™ HPX-87H column. […] Sugars were detected using a refractive index detector with quantification by integration compared to purified sugar standards.\nAll HPLC data processing was performed using MICROSOFT EXCEL™ software. […] In this assay only glucose was measured since beta-glucosidase was at high levels in all samples but the controls. Percent conversion was calculated using Equation 1. Triplicate data points were averaged and standard deviation was calculated. […]\nData were collected and analyzed, as described in Example 18, after 72 hours of incubation at 50° C."}, "[3]": {"target": "T1, T. aurantiacus GH61A polypeptide", "test": "Phosphoric acid swollen cellulose (PASC) conversion assay (Examples 20, 21)", "settings": "A. oryzae CEL3A beta-glucosidase (20 mg protein per g cellulose) only; 72 hours, 50° C.", "procedure": "A 1.0% PASC slurry was prepared as described in Example 17. Ten ml of the 1.0% PASC slurry, 10 ml of H2O, and […] of dioxy compound were thoroughly mixed by shaking,\nFive hundred μl aliquots of the 0.50% phosphoric acid swollen cellulose/0.05% dioxy compound slurry were pipetted into wells of a 2.0 ml 96-deepwell plate (Axygen, Union City, Calif., USA) using a 1000 μl micropipette with a wide aperture tip (end of tip cut off about 2 mm from the base). One hundred μl of 10 mM MnSO4-500 mM sodium acetate pH 5 were then added to each well. Two hundred μl of deionized water were added to each well. Enzyme mixtures were prepared and then added simultaneously to all wells in a volume of 200 μl, for a total of 1 ml in each reaction. […] All experiments reported were performed in triplicate.\nas §1\nAll HPLC data processing was performed using MICROSOFT EXCEL™ software. […] In this assay only glucose was measured since beta-glucosidase was at high levels in all samples but the controls. Percent conversion was calculated using Equation 1. Triplicate data points were averaged and standard deviation was calculated.\nThe PASC assay was performed as described in Example 20.\nData were collected and analyzed, as described in Example 20, after 72 hours of incubation at 50° C."}},
  "data": [
    {"molecule": "A. oryzae CEL3A beta-glucosidase: CEL3A beta-glucosidase (SEQ ID NO: 112), recombinantly prepared as described in WO 2004/099228 (protein, listed as Aspergillus oryzae) MKLGWIEVAALAAASVVSAKDDLAYSPPFYPSPWADGQGEWAEVYKRAVDIVSQMTLTEKVNLTTGTGWQLERCVGQTGSVPRLNIPSLCLQDSPLGIRFSDYNSAFPAGVNVAATWDKTLAYLRGQAMGEEFSDKGIDVQLGPAAGPLGAHPDGGRNWEGFSPDPALTGVLFAETIKGIQDAGVIATAKHYIMNEQEHFRQQPEAAGYGFNVSDSLSSNVDDKTMHELYLWPFADAVRAGVGAVMCSYNQINNSYGCENSETLNKLLKAELGFQGFVMSDWTAHHSGVGAALAGLDMSMPGDVTFDSGTSFWGANLTVGVLNGTIPQWRVDDMAVRIMAAYYKVGRDTKYTPPNFSSWTRDEYGFAHNHVSEGAYERVNEFVDVQRDHADLIRRIGAQSTVLLKNKGALPLSRKEKLVALLGEDAGSNSWGANGCDDRGCDNGTLAMAWGSGTANFPYLVTPEQAIQNEVLQGRGNVFAVTDSWALDKIAAAARQASVSLVFVNSDSGEGYLSVDGNEGDRNNITLWKNGDNVVKTAANNCNNTVVIIHSVGPVLIDEWYDHPNVTGILWAGLPGQESGNSIADVLYGRVNPGAKSPFTWGKTRESYGSPLVKDANNGNGAPQSDFTQGVFIDYRHFDKFNETPIYEFGYGLSYTTFELSDLHVQPLNASRYTPTSGMTEAAKNFGEIGDASEYVYPEGLERIHEFIYPWINSTDLKASSDDSNYGWEDSKYIPEGATDGSAQPRLPASGGAGGNPGLYEDLFRVSVKVKNTGNVAGDEVPQLYVSLGGPNEPKVVLRKFERIHLAPSQEAVWTTTLTRRDLANWDVSAQDWTVTPYPKTIYVGNSSRKLPLQASLPKAQ", "values": [
      {"measurement": "conversion of the bacterial cellulose", "setting": "[1]", "value": "2.4±2.9", "unit": "%"},
      {"measurement": "conversion of PASC", "setting": "[2]", "value": "2.4±0.5", "unit": "%"},
      {"measurement": "conversion of the phosphoric acid swollen cellulose", "setting": "[3]", "value": "2.0±0.1", "unit": "%"}
    ]}
  ]
}
